Source: the supplement of paper PMC7877785
± gives the uncertainty stated by the source.

Assay: self-splicing fitness, log relative to wild type (ln ratio); higher = more splicing; Tetrahymena group I intron in knt gene, E. coli kanamycin selection, DiMSum; sequences stand for … in CUCUCU…GGAGGGAAAAGUUAUCAGGCAUGCACCUGGUAGCUAGUCUUUAAACCAAUAGAUUGCAUCGGUUUAAAAGGCAAGACCGUCAAAUUGCGGGAAAGGGGUCAACAGCCGUUCAGUACCAAGUCUCAGGGGAAACUUUGAGAUGGCCUUGCAAAGGGUAUGGUAAUAAGCUGACGGACAUGGUCCUAACCACGCAGCCAAGUCCUAAGUCAACAGAUCUUCUGUUGAUAUGGAUGCAGUUCACAGACUAAAUGUCGGUCGGGGAAGAUGUAUUCUUCUCAUAAGAUAUAGUCGGACCUCUCCUUAAUGGGAGCUAGCGGAUGAAGUGAUGCAACACUGGAGCCGCUGGGAACUAAUUUGUAUGCGAAAGUAUAUUGAUUAGUUUUGGAGUACUCGUGGUCG
Procedure, shortened: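 Six replicate transformations of E. coli BL21(DE3) with a pET-22b(+) library were grown overnight at 37°C or 30°C. The library randomised all eight P1ex-region intron nucleotides, the intron lying in the knt kanamycin-resistance gene, and plates were LB agar with or without 25 μg/mL kanamycin plus 100 μg/mL carbenicillin, 50 μM IPTG and 0.2% rhamnose. Pooled colonies were amplicon-sequenced on an Illumina HiSeq 2500, and fitness is the DiMSum error-weighted combination of wild-type-normalised replicate fold changes, kanamycin versus none.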

| Sequence | self-splicing fitness (ln) (30 °C) | self-splicing fitness (ln) (37 °C) |
| --- | --- | --- |
| AAAUAGCAAUAUUACGUUCU | -0.419 ± 0.069 | -0.584 ± 0.091 |
| AAAUAGCAAUAUUACGUUUU | -2.81 ± 0.11 | -1.05 ± 0.099 |
| AACAAGCAAUAUUACGAACA | -1.16 ± 0.11 | -0.392 ± 0.11 |
| AACAAGCAAUAUUACGAACG | -1.33 ± 0.11 | -0.418 ± 0.13 |
| AACAAGCAAUAUUACGACGU | 0.394 ± 0.063 | 0.441 ± 0.07 |
| AACAAGCAAUAUUACGACUC | -0.216 ± 0.072 | 0.125 ± 0.097 |
| AACAAGCAAUAUUACGAGUC | -3.19 ± 0.12 | -1.89 ± 0.14 |
| AACAAGCAAUAUUACGAUAU | -1.42 ± 0.098 | -1.03 ± 0.12 |
| AACAAGCAAUAUUACGAUCA | -0.766 ± 0.058 | -0.628 ± 0.078 |
| AACAAGCAAUAUUACGCAAU | -1.37 ± 0.096 | -1.09 ± 0.12 |
| AACAAGCAAUAUUACGCACU | 0.195 ± 0.069 | -0.195 ± 0.083 |
| AACAAGCAAUAUUACGCAGC | -3.18 ± 0.16 | -2.53 ± 0.18 |
| AACAAGCAAUAUUACGCGAG | -1.58 ± 0.072 | -0.559 ± 0.067 |
| AACAAGCAAUAUUACGCUCC | -2.2 ± 0.12 | -0.601 ± 0.13 |
| AACAAGCAAUAUUACGCUUC | -4.57 ± 0.3 | -2.75 ± 0.26 |
| AACAAGCAAUAUUACGGAAC | -3.32 ± 0.16 | -1.73 ± 0.15 |
| AACAAGCAAUAUUACGGCCA | -0.5 ± 0.077 | -0.412 ± 0.092 |
| AACAAGCAAUAUUACGGCCG | -0.739 ± 0.12 | 0.121 ± 0.15 |
| AACAAGCAAUAUUACGGGUG | -0.579 ± 0.047 | -0.604 ± 0.064 |
| AACAAGCAAUAUUACGGGUU | -2.34 ± 0.11 | -2.91 ± 0.16 |
| AACAAGCAAUAUUACGGUAA | -1.83 ± 0.1 | -1.04 ± 0.096 |
| AACAAGCAAUAUUACGGUAU | -1.61 ± 0.075 | -1.16 ± 0.098 |
| AACAAGCAAUAUUACGGUCC | -1.36 ± 0.063 | -0.282 ± 0.072 |
| AACAAGCAAUAUUACGUACC | -1.03 ± 0.083 | 0.125 ± 0.13 |

| Sequence | self-splicing fitness (ln) (30 °C) | self-splicing fitness (ln) (37 °C) |
| --- | --- | --- |
| AACAAGCAAUAUUACGUCUU | -0.312 ± 0.057 | 0.0818 ± 0.077 |
| AACAAGCAAUAUUACGUGCG | -1.17 ± 0.05 | -0.476 ± 0.064 |
| AACAAGCAAUAUUACGUGGA | -2.59 ± 0.11 | -1.51 ± 0.094 |
| AACAAGCAAUAUUACGUGUG | -1.69 ± 0.043 | -0.657 ± 0.05 |
| AACCAGCAAUAUUACGAAAG | -3.21 ± 0.16 | -1.99 ± 0.19 |
| AACCAGCAAUAUUACGAACU | -0.369 ± 0.079 | 0.35 ± 0.1 |
| AACCAGCAAUAUUACGAAUA | -2.32 ± 0.13 | -1.71 ± 0.097 |
| AACCAGCAAUAUUACGACGC | -0.537 ± 0.082 | -0.0547 ± 0.098 |
| AACCAGCAAUAUUACGAGGA | -2.25 ± 0.13 | -1.51 ± 0.11 |
| AACCAGCAAUAUUACGCAGG | -4.46 ± 0.2 | -2.28 ± 0.14 |
| AACCAGCAAUAUUACGCCAA | -2.55 ± 0.14 | -1.67 ± 0.16 |
| AACCAGCAAUAUUACGCUCG | -0.795 ± 0.075 | 0.274 ± 0.097 |
| AACCAGCAAUAUUACGGACC | 0.38 ± 0.1 | -0.273 ± 0.11 |
| AACCAGCAAUAUUACGGCCC | 0.0145 ± 0.12 | 0.0337 ± 0.099 |
| AACCAGCAAUAUUACGGCGC | -0.046 ± 0.068 | -0.103 ± 0.086 |
| AACCAGCAAUAUUACGGCUA | -0.197 ± 0.048 | 0.0992 ± 0.063 |
| AACCAGCAAUAUUACGGGAA | -1.76 ± 0.073 | -1.01 ± 0.065 |
| AACCAGCAAUAUUACGGGGC | -3.59 ± 0.16 | -2.64 ± 0.16 |
| AACCAGCAAUAUUACGGGUC | -3.62 ± 0.13 | -2.68 ± 0.15 |
| AACCAGCAAUAUUACGGUUU | -3.26 ± 0.12 | -2.96 ± 0.17 |
| AACCAGCAAUAUUACGUAUC | -2.57 ± 0.097 | -1.39 ± 0.1 |
| AACCAGCAAUAUUACGUCGC | -2.34 ± 0.077 | -0.689 ± 0.085 |
| AACCAGCAAUAUUACGUGCC | -1.44 ± 0.063 | -0.956 ± 0.079 |
| AACCAGCAAUAUUACGUGCG | -0.832 ± 0.053 | -0.365 ± 0.064 |

| Sequence | self-splicing fitness (ln) (30 °C) | self-splicing fitness (ln) (37 °C) |
| --- | --- | --- |
| AACCAGCAAUAUUACGUUAG | -3.68 ± 0.11 | -2.44 ± 0.11 |
| AACCAGCAAUAUUACGUUUU | -2.11 ± 0.057 | -1.27 ± 0.065 |
| AACGAGCAAUAUUACGACAG |  | -2.37 ± 0.28 |
| AACGAGCAAUAUUACGACCU | -1.02 ± 0.22 | -0.178 ± 0.2 |
| AACGAGCAAUAUUACGACUU | -0.000737 ± 0.11 | -0.7 ± 0.12 |
| AACGAGCAAUAUUACGAGAG | -3.41 ± 0.15 | -1.98 ± 0.16 |
| AACGAGCAAUAUUACGAGCA | -2.69 ± 0.18 | -1.97 ± 0.22 |
| AACGAGCAAUAUUACGAGCG | -2.76 ± 0.19 | -2.55 ± 0.2 |
| AACGAGCAAUAUUACGAGGC | -2.92 ± 0.29 | -2.97 ± 0.48 |
| AACGAGCAAUAUUACGAGUG | -1.64 ± 0.097 | -0.602 ± 0.12 |
| AACGAGCAAUAUUACGAUUA | -1.89 ± 0.16 | -1.02 ± 0.16 |
| AACGAGCAAUAUUACGCGAG | -2.75 ± 0.24 | -2.61 ± 0.25 |
| AACGAGCAAUAUUACGCGUG | -1.89 ± 0.094 | -1.12 ± 0.099 |
| AACGAGCAAUAUUACGCUGC | -3.01 ± 0.26 | -3.06 ± 0.35 |
| AACGAGCAAUAUUACGGAGA | -3.61 ± 0.26 | -2.8 ± 0.28 |
| AACGAGCAAUAUUACGGGCU | -3.63 ± 0.23 | -2.49 ± 0.22 |
| AACGAGCAAUAUUACGGGUC | -3.17 ± 0.22 | -1.65 ± 0.2 |
| AACGAGCAAUAUUACGGUAU | -4.43 ± 0.22 | -1.85 ± 0.12 |
| AACGAGCAAUAUUACGGUUG | -3.98 ± 0.15 | -2.37 ± 0.13 |
| AACGAGCAAUAUUACGUACC | -2.91 ± 0.23 | -1.9 ± 0.2 |
| AACGAGCAAUAUUACGUAGG | -3.93 ± 0.21 | -2.49 ± 0.18 |
| AACGAGCAAUAUUACGUAUC | -3.69 ± 0.4 | -3.55 ± 0.46 |
| AACGAGCAAUAUUACGUCAG | -3.08 ± 0.29 | -2.97 ± 0.34 |
| AACGAGCAAUAUUACGUUAC | -3.45 ± 0.29 | -0.155 ± 0.15 |

| Sequence | self-splicing fitness (ln) (30 °C) | self-splicing fitness (ln) (37 °C) |
| --- | --- | --- |
| AACGAGCAAUAUUACGUUGA | -3.48 ± 0.21 | -3.32 ± 0.22 |
| AACGAGCAAUAUUACGUUUG | -3.6 ± 0.2 | -2.45 ± 0.28 |
| AACUAGCAAUAUUACGACAG | -1.7 ± 0.14 | -0.514 ± 0.13 |
| AACUAGCAAUAUUACGACCC |  | -0.568 ± 0.41 |
| AACUAGCAAUAUUACGAGCU | -1.5 ± 0.095 | -0.511 ± 0.11 |
| AACUAGCAAUAUUACGAGUA | -0.62 ± 0.07 | -0.322 ± 0.083 |
| AACUAGCAAUAUUACGAUAC | -3.15 ± 0.23 | -1.24 ± 0.34 |
| AACUAGCAAUAUUACGAUUC | -1.81 ± 0.094 | -0.882 ± 0.11 |
| AACUAGCAAUAUUACGCCGC | -2.1 ± 0.23 |  |
| AACUAGCAAUAUUACGCGCG | -0.639 ± 0.082 | -0.378 ± 0.12 |
| AACUAGCAAUAUUACGCGGU | -4.59 ± 0.29 | -0.982 ± 0.17 |
| AACUAGCAAUAUUACGCUAC | -3.46 ± 0.22 | -1.34 ± 0.14 |
| AACUAGCAAUAUUACGCUCG | -0.797 ± 0.1 | -0.51 ± 0.13 |
| AACUAGCAAUAUUACGGCGC | -0.8 ± 0.13 | -0.34 ± 0.16 |
| AACUAGCAAUAUUACGGCUA | -1.08 ± 0.11 | -1.22 ± 0.11 |
| AACUAGCAAUAUUACGGCUU | 0.0162 ± 0.065 | -0.0298 ± 0.091 |
| AACUAGCAAUAUUACGGGUG | -0.377 ± 0.049 | -0.0736 ± 0.07 |
| AACUAGCAAUAUUACGGUUG | -1.36 ± 0.1 | -0.299 ± 0.11 |
| AACUAGCAAUAUUACGUACG | -1.15 ± 0.079 | -0.237 ± 0.096 |
| AACUAGCAAUAUUACGUAGU | -2.24 ± 0.084 | -1.39 ± 0.12 |
| AACUAGCAAUAUUACGUAUA | -2.05 ± 0.11 | -0.938 ± 0.12 |
| AACUAGCAAUAUUACGUCAA | -2.66 ± 0.18 | -2.13 ± 0.15 |
| AACUAGCAAUAUUACGUCUA | -0.702 ± 0.097 | -0.347 ± 0.1 |
| AACUAGCAAUAUUACGUGUA | -2.2 ± 0.09 | -0.888 ± 0.09 |
